pKd: −log10 of the molar value.
System: LSD1Δ1 (KDM1);CoRESTΔ1 (human;human)
Assay: HI-FI fluorescence quenching
Settings: 20 mM Tris-HCl pH 7.6, 50 mM NaCl, 5 mM DTT, 5% glycerol, 0.01% NP40, 0.01% CHAPS, 100 ug/ml BSA, 2 mM EDTA, room temperature, 15 min

Substance	pKd
147 bp nucleosome 1N1, H3 A21C	7.09
147 bp nucleosome 1N1, H3 K27C	5.78
151 bp nucleosome 3N3, H3 K27C	6.15
151L nucleosome 5N1, H3 K27C	6.14
155 bp nucleosome 5N5, H3 K27C	6.38
157 bp nucleosome 6N6, H3 A21C	7.75
157 bp nucleosome 6N6, H3 K27C	6.33
159 bp nucleosome 7N7, H3 K27C	6.63
161 bp nucleosome 8N8, H3 K27C	6.63
161L nucleosome 15N1, H3 K27C	6.39
163 bp nucleosome 9N9, H3 K27C	6.63
165 bp nucleosome 10N10, H3 K27C	6.69
169 bp nucleosome 12N12, H3 K27C	6.55
177 bp nucleosome 16N16, H3 K27C	6.67
177L nucleosome 31N1, H3 K27C	6.11
181 bp nucleosome 18N18, H3 A21C	8.42
181 bp nucleosome 18N18, H3 K27C	7.00
185 bp nucleosome 20N20, H3 K27C	6.87
207 bp nucleosome 31N31, H3 A21C	8.52
207 bp nucleosome 31N31, H3 K27C	6.58
